{"source": "patent US8309097B2", "about": "“C-type lectin binding molecules, identification and uses thereof” (Vereniging voor Christelijk Wetenschappelijk Onderwijs, priority 2002, dated 2012)", "key": {"[1]": {"biological_target": "T1, DC-SIGN expressed by K562 transfectants (Homo sapiens, UniProt Q9NNX6)", "T1 construct": "expressed in transfected cells; host or cells: K562", "T1 sequence (Q9NNX6 1-404)": "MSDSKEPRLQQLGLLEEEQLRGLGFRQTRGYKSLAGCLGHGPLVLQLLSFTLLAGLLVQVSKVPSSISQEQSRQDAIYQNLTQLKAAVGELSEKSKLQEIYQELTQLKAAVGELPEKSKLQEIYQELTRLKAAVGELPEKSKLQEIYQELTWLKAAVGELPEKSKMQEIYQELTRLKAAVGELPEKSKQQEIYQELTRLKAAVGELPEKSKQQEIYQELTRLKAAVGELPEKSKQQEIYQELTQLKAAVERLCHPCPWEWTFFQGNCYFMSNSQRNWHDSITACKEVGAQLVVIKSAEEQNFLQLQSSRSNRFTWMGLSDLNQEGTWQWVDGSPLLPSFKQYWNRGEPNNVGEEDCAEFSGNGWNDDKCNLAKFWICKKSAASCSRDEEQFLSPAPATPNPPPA", "format": "cell-based"}, "[2]": {"biological_target": "T2, DC-SIGN on immature monocyte derived DC (Homo sapiens, UniProt Q9NNX6)", "T2 construct": "Immature DC were cultured from monocytes in the presence of IL-4 and GM-CSF; endogenous in cells; host or cells: immature monocyte-derived dendritic cells", "T2 sequence (Q9NNX6 1-404)": "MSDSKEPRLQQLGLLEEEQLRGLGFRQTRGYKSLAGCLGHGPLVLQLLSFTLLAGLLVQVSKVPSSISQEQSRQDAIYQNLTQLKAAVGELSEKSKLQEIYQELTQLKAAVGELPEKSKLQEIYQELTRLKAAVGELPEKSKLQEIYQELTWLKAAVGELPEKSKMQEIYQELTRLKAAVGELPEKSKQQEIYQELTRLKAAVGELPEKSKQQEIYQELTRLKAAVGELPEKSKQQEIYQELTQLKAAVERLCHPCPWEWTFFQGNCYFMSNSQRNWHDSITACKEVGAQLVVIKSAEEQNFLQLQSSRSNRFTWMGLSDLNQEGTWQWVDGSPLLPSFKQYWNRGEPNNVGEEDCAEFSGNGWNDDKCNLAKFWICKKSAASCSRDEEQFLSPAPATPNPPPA", "experiment": "Fluorescent bead adhesion assay, immature DC", "format": "cell-based"}, "DC-SIGN-Fc [3]": {"biological_target": "T3, DC-SIGN-Fc (Homo sapiens, UniProt Q9NNX6)", "T3 sequence (Q9NNX6 64-404)": "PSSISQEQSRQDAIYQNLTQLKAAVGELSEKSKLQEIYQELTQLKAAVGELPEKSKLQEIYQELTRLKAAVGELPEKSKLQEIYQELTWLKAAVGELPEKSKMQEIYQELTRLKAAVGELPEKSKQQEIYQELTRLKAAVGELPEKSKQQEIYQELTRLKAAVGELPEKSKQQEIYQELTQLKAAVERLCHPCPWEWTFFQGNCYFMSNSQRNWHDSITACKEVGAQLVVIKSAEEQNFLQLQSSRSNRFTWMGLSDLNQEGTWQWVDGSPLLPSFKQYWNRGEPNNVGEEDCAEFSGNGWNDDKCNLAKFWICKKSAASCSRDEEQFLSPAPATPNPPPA", "experiment": "Soluble DC-SIGN-Fc adhesion assay (Fc ELISA)", "details": "ELISA, ligand coated"}, "DC-SIGN-Fc [4]": {"biological_target": "T3, DC-SIGN-Fc", "experiment": "Immunoprecipitation and detection with DC-SIGN-Fc", "format": "binding", "description": "FIG. 59. […] Cell-surface proteins are biotinylated and PMNs are lysed. Lane 1. negative control using ICAM-3 Fc to capture by IP proteins. Detection is peroxidase-labeled streptavidin. Lane 2. DC-SIGN-Fc is used to capture ligands biotinylated ligands from lysate; two protein bands are visible, the upper band consists of CD11b and CD66a, whereas the lower consists of CD18. Lane 3. Negative control; no bands are immune precipitated with anti-DC-SIGN antibodies. Lane 4, IP with antibodies against CD66acd; a faint band is visible containing CD66a. Lane 5, IP of CD11b; two bands are visible; the upper band is […] and the lower band is CD18m, which is co-immuneprecipitated with […]. Lane 6. IP with DC-SIGN ligands and detection with anti-CD66acd; CD66a is captured by DC-SIGN Fc. Lane 7. IP with DC-SIGN ligands and detection with anti-CD11b; CD11b is captured by DC-SIGN Fc. Lane 8. Negative control, IP with anti-DC-SIGN antibodies and detection with DC-SIGN-Fc. Lane 9. IP with anti-CD66acd and detection with DC-SIGN Fc; CD66a is bound by DC-SIGN on blot. Lane 10. IP with anti-CD11a and detection with DC-SIGN Fc; CD11a is bound by DC-SIGN on blot.\nImmunoprecipitation. […]"}}}
{"molecule": "CEACAM1: native CEACAM1 (CD66) from PMN (protein, UniProt P13688 35-526, looked up) Cell adhesion molecule CEACAM1: QLTTESMPFNVAEGKEVLLLVHNLPQQLFGYSWYKGERVDGNRQIVGYAIGTQQATPGPANSGRETIYPNASLLIQNVTQNDTGFYTLQVIKSDLVNEEATGQFHVYPELPKPSISSNNSNPVEDKDAVAFTCEPETQDTTYLWWINNQSLPVSPRLQLSNGNRTLTLLSVTRNDTGPYECEIQNPVSANRSDPVTLNVTYGPDTPTISPSDTYYRPGANLSLSCYAASNPPAQYSWLINGTFQQSTQELFIPNITVNNSGSYTCHANNSVTGCNRTTVKTIIVTELSPVVAKPQIKASKTTVTGDKDSVNLTCSTNDTGISIRWFFKNQSLPSSERMKLSQGNTTLSINPVKREDAGTYWCEVFNPISKNQSDPIMLNVNYNALPQENGLSPGAIAGIVIGVVALVALIAVALACFLHFGKTGRASDQRDLTEHKPSVSNHTQDHSNDPPNKMNEVTYSTLNFEAQQPTQPTSASPSLTATEIIYSEVKKQ", "values": [{"measurement": "binding of ligand-coated beads to K562 DC-SIGN transfectants", "setting": "[1]", "value": "binds"}, {"measurement": "binding of ligand-coated beads to immature DC", "setting": "[2]", "value": "binds"}, {"measurement": "binding of DC-SIGN-Fc to coated ligand", "setting": "DC-SIGN-Fc [3]", "value": "is a ligand of DC-SIGN"}]}
{"molecule": "CD66e: tumor antigen CEA from SW948 tumor cell lysate (protein, UniProt P06731 35-685, looked up) Cell adhesion molecule CEACAM5: KLTIESTPFNVAEGKEVLLLVHNLPQHLFGYSWYKGERVDGNRQIIGYVIGTQQATPGPAYSGREIIYPNASLLIQNIIQNDTGFYTLHVIKSDLVNEEATGQFRVYPELPKPSISSNNSKPVEDKDAVAFTCEPETQDATYLWWVNNQSLPVSPRLQLSNGNRTLTLFNVTRNDTASYKCETQNPVSARRSDSVILNVLYGPDAPTISPLNTSYRSGENLNLSCHAASNPPAQYSWFVNGTFQQSTQELFIPNITVNNSGSYTCQAHNSDTGLNRTTVTTITVYAEPPKPFITSNNSNPVEDEDAVALTCEPEIQNTTYLWWVNNQSLPVSPRLQLSNDNRTLTLLSVTRNDVGPYECGIQNELSVDHSDPVILNVLYGPDDPTISPSYTYYRPGVNLSLSCHAASNPPAQYSWLIDGNIQQHTQELFISNITEKNSGLYTCQANNSASGHSRTTVKTITVSAELPKPSISSNNSKPVEDKDAVAFTCEPEAQNTTYLWWVNGQSLPVSPRLQLSNGNRTLTLFNVTRNDARAYVCGIQNSVSANRSDPVTLDVLYGPDTPIISPPDSSYLSGANLNLSCHSASNPSPQYSWRINGIPQQHTQVLFIAKITPNNNGTYACFVSNLATGRNNSIVKSITVSASGTSPGLSA", "values": [{"measurement": "binding of DC-SIGN-Fc to immunoprecipitated ligand", "setting": "DC-SIGN-Fc [4]", "value": "binds"}, {"measurement": "binding of DC-SIGN-Fc after α-1,3,4 Fucosidase treatment of the ligand", "setting": "DC-SIGN-Fc [4]; immunoprecipitation", "value": "abrogated"}, {"measurement": "binding of DC-SIGN-Fc to coated ligand", "setting": "DC-SIGN-Fc [3]", "value": "bound"}]}
{"molecule": "ICAM-3: cellular ligand of DC-SIGN (protein) QEFLLRVEPQNPVLSAGGSLFVNCSTDCPSSEKIALETSLSKELVASGMGWAAFNLSNVTGNSRILCSVYCNGSQITGSSNITVYRLPERVELAPLPPWQPVGQNFTLRCQVEDGSPRTSLTVVLLRWEEELSRQPAVEEPAEVTATVLASRDDHGAPFSCRTELDMQPQGLGLFVNTSAPRQLRTFVLPVTPPRLVAPRFLEVETSWPVDCTLDGLFPASEAQVYLALGDQMLNATVMNHGDTLTATATATARADQEGAREIVCNVTLGGERREARENLTVFSFLGPIVNLSEPTAHEGSTVTVSCMAGARVQVTLDGVPAAAPGQPAQLQLNATESDDGRSFFCSATLEVDGEFLHRNSSVQLRVLYGPKIDRATCPQHLKWKDKTRHVLQCQARGNPYPELRCLKEGSSREVPVGIPFFVNVTHNGTYQCQASSSRGKYTLVVVMDIEAGSSH", "values": [{"measurement": "binding of DC-SIGN-Fc to coated ligand", "setting": "DC-SIGN-Fc [3]", "value": "does not recognize"}]}
{"molecule": "RNAseB: control inhibitor in DC adhesion assay (protein, UniProt P61823 27-150, looked up, glycoform B) Ribonuclease pancreatic: KETAAAKFERQHMDSSTSAASSSNYCNQMMKSRNLTKDRCKPVNTFVHESLADVQAVCSQKNVACKNGQTNCYQSYSTMSITDCRETGSSKYPNCAYKTTQANKHIIVACEGNPYVPVHFDASV", "values": [{"measurement": "inhibition of HIV-1 gp120 adhesion to DC", "setting": "[2]", "value": "does not block"}, {"measurement": "inhibition of ICAM-3 adhesion to DC", "setting": "[2]; inhibitors 20 μg/ml", "value": "does not block"}]}
